Results taken from patent US20230381281A1, “PHARMACEUTICAL COMPOSITION COMPRISING GLUCAGON/GLP-1/GIP TRIPLE AGONIST OR LONG-ACTING CONJUGATE THEREOF FOR PREVENTING OR TREATING LUPUS-RELATED DISEASES” (HANMI PHARM. CO., LTD., priority 2020, published 2023).
Numbering of substitutions follows the chain as printed. Bridge positions count the residues as written; N and C are the ends. Square brackets hold non-standard residues; d marks the D form. Ends that are not written are not given here. * marks the point of attachment. Acetyl(2-(4-imidazolyl)) = O=C(Cc1c[nH]cn1)*; Aib = CC(C)(N)C(=O)O

T1: human GIP receptor (human, UniProt P48546 22-466)
T1 sequence (looked up): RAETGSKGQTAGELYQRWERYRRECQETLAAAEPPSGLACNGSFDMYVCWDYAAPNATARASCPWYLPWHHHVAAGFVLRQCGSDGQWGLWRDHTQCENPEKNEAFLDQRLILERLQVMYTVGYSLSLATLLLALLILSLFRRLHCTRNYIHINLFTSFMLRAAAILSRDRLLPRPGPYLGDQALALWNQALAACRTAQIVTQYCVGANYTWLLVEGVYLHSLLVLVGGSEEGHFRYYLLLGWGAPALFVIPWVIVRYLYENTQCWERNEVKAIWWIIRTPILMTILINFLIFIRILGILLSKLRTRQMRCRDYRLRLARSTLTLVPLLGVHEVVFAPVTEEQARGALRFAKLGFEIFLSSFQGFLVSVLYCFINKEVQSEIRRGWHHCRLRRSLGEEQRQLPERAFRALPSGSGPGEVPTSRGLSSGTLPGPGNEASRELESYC

B1: Triple agonist of SEQ ID NO: 5 (peptide)
peptide: H[Aib]QGTFTSDVSSYLLGQQQKEFIAWLVKGGGPSSGAPPPSC
B2: Triple agonist of SEQ ID NO: 69 (peptide)
peptide: Y[Aib]QGTFTSDYSKCLDERAAKEFVQWLLDHHPSSGQPPPS
modifications: bridge 16-20
B3: Triple agonist of SEQ ID NO: 53 (peptide)
peptide: H[Aib]EGTFTSDYSIAMDEIHQKDFVNWLLAQC
modifications: bridge 16-20
B4: Triple agonist of SEQ ID NO: 57 (peptide)
peptide: H[Aib]QGTFTSDYSIAMDEIHQKDFVNWLLNTC
modifications: bridge 16-20
B5: Triple agonist of SEQ ID NO: 6 (peptide)
peptide: H[Aib]QGTFTSDVSSYLDGQAAKEFVAWLLKGC
B6: Triple agonist of SEQ ID NO: 66 (peptide)
peptide: Y[Aib]QGTFTSDYSKYLDECRAKDFVQWLLDHHPSSGQPPPS
modifications: bridge 16-20
B7: Triple agonist of SEQ ID NO: 45 (peptide)
peptide: HGQGTFTSDCSKYMDGQAAQDFVAWLLAGGPSSGAPPPS
B8: Triple agonist of SEQ ID NO: 48 (peptide)
peptide: B7 peptide with M14L, A18R, A24N
B9: Triple agonist of SEQ ID NO: 47 (peptide)
peptide: B7 peptide with M14L, A18R, D21E
B10: Triple agonist of SEQ ID NO: 46 (peptide)
peptide: B7 peptide with M14L, G16E, A18H, D21E
B11: Triple agonist of SEQ ID NO: 54 (peptide)
peptide: H[Aib]EGTFTSDYSIAMDEIHQKDFVDWLLAEC
modifications: bridge 16-20
B12: Triple agonist of SEQ ID NO: 49 (peptide)
peptide: {Acetyl(2-(4-imidazolyl))}-[Aib]QGTFTSDYSICMDEIHQKDFVNWLLNTK
modifications: bridge 15-19
B13: Triple agonist of SEQ ID NO: 64 (peptide)
peptide: Y[Aib]QGTFTSDYSKYLDECAAKEFVQWLLDHHPSSGQPPPS
modifications: bridge 16-20
B14: Triple agonist of SEQ ID NO: 7 (peptide)
peptide: H[Aib]QGTFTSDVSKYLDGQAAKEFVAWLLKGC
B15: Triple agonist of SEQ ID NO: 58 (peptide)
peptide: H[Aib]QGTFTSDYSKYLDEKRQKEFVQWLLNTKC
modifications: bridge 16-20
B16: Triple agonist of SEQ ID NO: 67 (peptide)
peptide: Y[Aib]QGTFTSDYSKYLDECAAKDFVQWLLDHHPSSGQPPPS
modifications: bridge (positions not given here); ends not checked; also: ring formation between underlined amino acids, places not given here
B17: Triple agonist of SEQ ID NO: 68 (peptide)
peptide: Y[Aib]QGTFTSDYSKCLDEKAAKEFVQWLLDHHPSSGQPPPS
modifications: bridge 16-20
B18: Triple agonist of SEQ ID NO: 59 (peptide)
peptide: {Acetyl(2-(4-imidazolyl))}-[Aib]QGTFTSDYSICMDEKHQKDFVNWLLNTK
modifications: bridge 15-19
B19: Triple agonist of SEQ ID NO: 65 (peptide)
peptide: H[Aib]QGTFTSDYSKCLDEKRAKEFVQWLLDHHPSSGQPPPS
modifications: bridge 16-20
B20: Triple agonist of SEQ ID NO: 60 (peptide)
peptide: {Acetyl(2-(4-imidazolyl))}-[Aib]QGTFTSDYSIAMDEKHCKDFVNWLLNTK
modifications: bridge 15-19
B21: Triple agonist of SEQ ID NO: 62 (peptide)
peptide: {Acetyl(2-(4-imidazolyl))}-[Aib]QGTFTSDKSKYLDERAAQDFVQWLLDGGPSSGAPPPS
B22: Triple agonist of SEQ ID NO: 70 (peptide)
peptide: Y[Aib]QGTFTSDYSKCLDEKRAKDFVQWLLDHHPSSGQPPPS
modifications: bridge 16-20
B23: Triple agonist of SEQ ID NO: 61 (peptide)
peptide: {Acetyl(2-(4-imidazolyl))}-[Aib]QGTFTSDYSIAMDEIACKDFVNWLLNTK
modifications: bridge 15-19
B24: Triple agonist of SEQ ID NO: 52 (peptide)
peptide: H[Aib]QGTFTSDYSKYLDEKRQKEFVQWLLDTC
modifications: bridge 16-20
B25: Triple agonist of SEQ ID NO: 63 (peptide)
peptide: {Acetyl(2-(4-imidazolyl))}-[Aib]QGTFTSDCSKYLDERAAQDFVQWLLDGGPSSGAPPPS
B26: Triple agonist of SEQ ID NO: 56 (peptide)
peptide: H[Aib]QGTFTSDYSKYLDEKRQKEFVNWLLAQC
modifications: bridge (positions not given here); also: ring formation between underlined amino acids, places not given here
B27: Triple agonist of SEQ ID NO: 50 (peptide)
peptide: H[Aib]QGTFTSDYSKYLDEKRAKEFVQWLLDHHPSSGQPPPSC
modifications: bridge 16-20
B28: Triple agonist of SEQ ID NO: 51 (peptide)
peptide: H[Aib]QGTFTSDYSKYLDEKRQKEFVQWLLNTC
modifications: bridge 16-20
B29: Triple agonist of SEQ ID NO: 55 (peptide)
peptide: H[Aib]QGTFTSDYSIAMDEIHQKDFVNWLLAQC
modifications: bridge 16-20

Biological target: human GLP-1 receptor (human, UniProt P43220 24-463)
Assay: cell-based or functional assay

Row | Binder | In vitro activity compared to native peptide (%) vs GLP-1 [%]
1 | B1 | 42.1
2 | B2 | 24.3
3 | B3 | 161
4 | B4 | 11.7
5 | B5 | 17
6 | B6 | 15.8
7 | B7 | 6.6
8 | B8 | 1.5
9 | B9 | 2.4
10 | B10 | 1.4
11 | B11 | 30.6
12 | B12 | 29.8
13 | B13 | 64.6
14 | B14 | 13.7
15 | B15 | 39.1
16 | B16 | 28.5
17 | B17 | 27.9
18 | B18 | 40.3
19 | B19 | 95.4
20 | B20 | 106
21 | B21 | 5.2
22 | B22 | 15.1
23 | B23 | 59.8
24 | B24 | 44.1
25 | B25 | 15.3
26 | B26 | 57.9
27 | B27 | 67.4
28 | B28 | 14.4
29 | B29 | 27.1

Biological target: human GCG receptor (human, UniProt P47871 26-477)
Assay: cell-based or functional assay

human GCG receptor, sequence (P47871 26-477): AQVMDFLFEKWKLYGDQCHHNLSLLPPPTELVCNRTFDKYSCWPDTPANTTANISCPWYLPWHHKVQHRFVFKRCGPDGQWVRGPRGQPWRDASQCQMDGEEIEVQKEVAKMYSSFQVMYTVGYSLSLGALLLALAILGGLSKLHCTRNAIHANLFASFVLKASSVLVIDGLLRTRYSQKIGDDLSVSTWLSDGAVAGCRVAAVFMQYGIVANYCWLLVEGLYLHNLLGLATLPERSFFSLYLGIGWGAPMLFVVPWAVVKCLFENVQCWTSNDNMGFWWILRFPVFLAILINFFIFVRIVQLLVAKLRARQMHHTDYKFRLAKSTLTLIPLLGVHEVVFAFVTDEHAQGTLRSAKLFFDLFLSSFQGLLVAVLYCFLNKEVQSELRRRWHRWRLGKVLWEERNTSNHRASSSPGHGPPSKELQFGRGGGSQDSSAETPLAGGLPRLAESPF

Row | Binder | In vitro activity compared to native peptide (%) vs Glucagon [%]
30 | B1 | < 0.1
31 | B2 | 9.6
32 | B3 | 8.4
33 | B4 | < 0.1
34 | B5 | < 0.1
35 | B6 | 172
36 | B7 | < 0.1
37 | B8 | < 0.1
38 | B9 | < 0.1
39 | B10 | < 0.1
40 | B11 | 1.4
41 | B12 | < 0.1
42 | B13 | 60.1
43 | B14 | < 0.1
44 | B15 | 2.6
45 | B16 | 46.2
46 | B17 | 8.8
47 | B18 | < 0.1
48 | B19 | 25.2
49 | B20 | < 0.1
50 | B21 | < 0.1
51 | B22 | 71.3
52 | B23 | < 0.1
53 | B24 | 7.5
54 | B25 | < 0.1
55 | B26 | 4.9
56 | B27 | 50.5
57 | B28 | 2
58 | B29 | 0.7

Biological target: T1, human GIP receptor
Assay: cell-based or functional assay

Row | Binder | In vitro activity compared to native peptide (%) vs GIP [%]
59 | B1 | < 0.1
60 | B2 | 62.8
61 | B3 | 1.3
62 | B4 | 0.3
63 | B5 | < 0.1
64 | B6 | 17.2
65 | B7 | < 0.1
66 | B8 | < 0.1
67 | B9 | < 0.1
68 | B10 | < 0.1
69 | B11 | 0.1
70 | B12 | 3.3
71 | B13 | 92.9
72 | B14 | < 0.1
73 | B15 | 0.2
74 | B16 | 39.8
75 | B17 | 107
76 | B18 | 4
77 | B19 | 11.6
78 | B20 | 18.2
79 | B21 | < 0.1
80 | B22 | 64.4
81 | B23 | 2.8
82 | B24 | 0.3
83 | B25 | < 0.1
84 | B26 | 0.8
85 | B27 | 2.7
86 | B28 | 0.1
87 | B29 | 2.4
